Columns and labels:
Thrombin = Thrombin (UniProt P00734;P00734 328-363;364-622); assay: strand-displacement fluorescence (Rep-2); 2-500 nM thrombin; LOD 0.96 nM; 5 mM Mg2+; 20 mM Tris-HCl pH 7.5 (22 °C), 100 mM NaCl, 0.1 mM EDTA, 5 mM MgCl2 (20 mM MgCl2 for DNAzyme), room temperature; indirect read-out by strand-displacement fluore
PDGF-BB = PDGF-BB (human, UniProt P01127 82-190); assay: strand-displacement fluorescence (Rep-2); 50 nM PDGF; 5 mM Mg2+; 20 mM Tris-HCl pH 7.5 (22 °C), 100 mM NaCl, 0.1 mM EDTA, 5 mM MgCl2 (20 mM MgCl2 for DNAzyme), room temperature; indirect read-out by strand-displacement fluorescence; conditions: protein: recombinant; chain copies: 2; hairpin, 2-bp stem
Sequence of PDGF-BB (P01127 82-190): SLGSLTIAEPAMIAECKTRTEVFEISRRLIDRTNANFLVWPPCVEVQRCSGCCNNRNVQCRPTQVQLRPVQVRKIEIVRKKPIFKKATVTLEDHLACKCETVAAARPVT

B1: Apt-Thr-3bp (= Apt-Thr-OR, Apt-Thr-NOT) (structured_DNA)
DNA: ATGTCAACGTTGTCCGTGGTAGGGCAGGTTGGGGTGACTTGGATAGGTAGGGTACGCT
B1: binds (Thrombin).

B2: Apt-PDGF-2bp (structured_DNA)
DNA: ATGTCAACGTTGGCTACGGCACGTAGAGCATCACCATGATCCTTGGATAGGTAGGGTACGCT
B2: binds (PDGF-BB).

Reference: publication PMC8329073, “A kinetically controlled platform for ligand-oligonucleotide transduction”
